Assay: yeast display, Sf9 membrane polyspecificity reagent, FACS + sequencing; frameworks hold sequencing errors
Summary of the method: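 Galactose-induced (36–48 hours) yeast carrying a synthetic nanobody display library were exposed to 10% biotinylated, detergent-solubilized Sf9 membrane reagent at 4 °C for 1 hour. FACS followed streptavidin microbead enrichment, using low and high (top ~1%) gates for expression (anti-HA) and reagent binding (streptavidin). Colony PCR, MiSeq 2 × 250 sequencing and CDR-length filtering followed. Labels for polyreactivity reflect the gate of origin.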

Sequence	polyreactivity (PSR sort gate)
QVQLVESGGGLVQAGGSLRLSCAASGRIFVHNAMGWSRQAPGKERELVAAISSGGSTYYADSVKGRFTISRDNAKNTVYLQMNSLKPEDTAVYYCAIYAYYNKYDYWGQGTQVTVSS	high polyreactivity
QVQLVESGGGLVQAGGSLRLSCAASGRIFVHYAMGWYRQAPGKERELVAAITSGSSTNYADSVKGRFTISRDNAKNTVYLQMNSLKPEDTAVYYCAADYSVHMVRDRWFDYWGQGTQVTVSS	low polyreactivity
QVQLVESGGGLVQAGGSLRLSCAASGRIFVIYAMGWNRQAPGKERELVASITDGTITNYADSVKGRFTISRDNAKNTVYLQMNSLKPEDTAVYYCAAGTQAHAYVVRPIEMDYWGQGTQVTVSS	low polyreactivity
QVQLVESGGGLVQAGGSLRLSCAASGRIFVIYGMGWYRQAPGKERELVAAIRWTGGSTYFADSVKGRFTISRDNAKNTVYLQMNSLKPEDTAVYYCNAGSDRAIWPTHDYWGQGTQVTVSS	low polyreactivity
QVQLVESGGGLVQAGGSLRLSCAASGRIFVIYGMGWYRQAPGKERELVATISWSGSSTSYADSVKGRFTISRDNAKNTVYLQMNSLKPEDTAVYYCAAYTWYSRHRMNYWGQGTQVTVSS	high polyreactivity
QVQLVESGGGLVQAGGSLRLSCAASGRIFVKNAMGWYRQAPGKERELVATISSGGNTNYADSVKGRFTISRDNAKNTVYLQMNSLKPEDTAVYYCAAVWDLGDYELPYDYWGQGTQVTVSS	low polyreactivity
QVQLVESGGGLVQAGGSLRLSCAASGRIFVKYAMGWYRQAPGKERELVAAITNSGGRTYYAASVKGRFTISRDNAKNTVYLQMNSLKPEDTAVYYCAALYHASTRQMDYWGQGTQVTVSS	high polyreactivity
QVQLVESGGGLVQAGGSLRLSCAASGRIFVKYAMGWYRQEPGKERELVAAIRWSVGSTYYADSVKGRFTISRDNAKNTVYLLMNSLKPEDTAVYYCAAQPVRKLYWGQGTQVTVSS	high polyreactivity
QVQLVESGGGLVQAGGSLRLSCAASGRIFVKYVMGWYRQAPGKERELVAAISSSGGRTYYADSVKGRFTISRDNAKNTVYLPMNSLKPEDTAVYYCNAVRRRSSLKLDSWGQGTQVTVSS	high polyreactivity
QVQLVESGGGLVQAGGSLRLSCAASGRIFVLYDMGWYRQAPGKERELVAGISGSGGRTYYADSVKGRFTISRDNAKNTVYLQMNSLKPEDTAVYYCNARGYYWYRPYVNSNGGYWGQGTQVTVSS	high polyreactivity
QVQLVESGGGLVQAGGSLRLSCAASGRIFVNNAMGWYRQAPGKERELVAAISKRGGSTYYADSVKGRFTISRDNAKNSVYLQMNSLKPEDTAVYYSAATPVYSGPYDYWGQGTQVTVSS	high polyreactivity
QVQLVESGGGLVQAGGSLRLSCAASGRIFVNYAMGWYRQAPVKERELVATITWSGGSTFYADSVKGRFTISRDNAKNTVYLQMNSLKPEDTAVYYCAQRGYVRSGLGRPYADDYWGQGTQLTVSS	low polyreactivity
QVQLVESGGGLVQAGGSLRLSCAASGRIFVPNAMGWYRQAPGKERELVAAITSSGSSTYYADSVKGRFTISRDNAKNTVYLQMNSLKPEDTAVYYCNTLWGGFSWFRVDSWGQGTQVTVSS	high polyreactivity
QVQLVESGGGLVQAGGSLRLSCAASGRIFVPYAMGWYRPAPGKERELVAAITWRGGRTYYADSVKGRFTISRDNAKNTVYLQMNSLKPEDTAVYYWAARGWTVTERYYWGQGTQVTVSS	high polyreactivity
QVQLVESGGGLVQAGGSLRLSCAASGRIFVPYAMGWYRQAPGKERELVAAISWRGGSTNYADSVKGRFTISRDNAKNTVYLQMNSLKPEDTAVYYCAAVPVRYRYSYGYYYWGQGTQVTVSS	high polyreactivity
QVQLVESGGGLVQAGGSLRLSCAASGRIFVPYVMGWYRQAPGKERELVASISDSDTSTYYADSVKGRFTISRDNAKNTVDLQMNSLKPEDTAVYYCNVDYWGQGTQVTVSS	low polyreactivity

Sequence	polyreactivity (PSR sort gate)
QVQLVESGGGLVQAGGSLRLSCAASGRIFVPYVMGWYRQAPGKERELVASISDSDTSTYYADSVKGRFTISRDNAKNTVYIQMNSLKPEDSAVYYCNVDYWGQGTQVTVSS	low polyreactivity
QVQLVESGGGLVQAGGSLRLSCAASGRIFVQYAMGWYRQAPGKERELVAAISYSGGRTYYADSVKGRFTISRDNAKNTVYLQMNSLKPEDTAVYYCAAVRAGYYGYWGKGTQVTVSS	high polyreactivity
QVQLVESGGGLVQAGGSLRLSCAASGRIFVQYDMGWYRQAHGKERELVAAITGGGGSTYYADSVKGRFTISRDNAKNTVYLQMNSLKPEDTAVYYCAADQDVYDFTGYDYWGQGTQVTVSS	low polyreactivity
QVQLVESGGGLVQAGGSLRLSCAASGRIFVQYDMGWYRQAPGKERELVAAITGGGGSTYYADSVKGRFTISRDNAKNTVYLQMHSLKPEDTAVYYCAADQDVYDFTGYDYWGQGTQVTVSS	low polyreactivity
QVQLVESGGGLVQAGGSLRLSCAASGRIFVRNAMGWYRQAPGKEREFVAAISRSGGSTYYAYSVKGRFTISRDNAKNSVYLQMNSLKPEDTAVYYCAADYPKTYTSKFNYWGQGTQVTVSS	high polyreactivity
QVQLVESGGGLVQAGGSLRLSCAASGRIFVRNAMGWYRQAPGKERELVAAITRTGASTYYADSVKGRFTISRDNAKNTVYLQMNSLKPDDTAVYYCAAVWGWPYWVYRYDYWGQGTQVTVSS	high polyreactivity
QVQLVESGGGLVQAGGSLRLSCAASGRIFVRNAMGWYRQAPGKERELVAAITTGGRTYYADSVKGRFTISRDNAKNTVYVQMNSVKPEDTAVYYCAATGDRKGYKYIYSDTNDYWGQGTQVTVSS	low polyreactivity
QVQLVESGGGLVQAGGSLRLSCAASGRIFVRNAMGWYRQAPGKERELVADITNGGSTNYADSVKGRFTISRDNAKNTVYLQMNSLNPEDTAVYYCAADTLGVYDGDYWGQGTQVTVSS	low polyreactivity
QVQLVESGGGLVQAGGSLRLSCAASGRIFVRYAMGWYRPAPGKERELVATISSRGGSTYYADSVKGRFTISRDNAKNTVYLQMTSLKPEDTAVYYWAAYVYPWGRDYWGQGTQVTVSS	high polyreactivity
QVQLVESGGGLVQAGGSLRLSCAASGRIFVRYAMGWYRQAPGKEREFVAAINYSGGSTYADSVKGRFTISRDNAKNSVFLQMIRLKPEDTAVYYCAADYQGITSSDPYDYWGQGTQVTVSS	low polyreactivity
QVQLVESGGGLVQAGGSLRLSCAASGRIFVRYAMGWYRQAPGKERELVAAITTTGDSTYADSVKGRFTISRDNAKNTVYLQMNSLKPEDTAVYYCNAAWPESRFLVYHRYDYWGQGTQVTVSS	low polyreactivity
QVQLVESGGGLVQAGGSLRLSCAASGRIFVRYTMGWYRQAPGKERELVAAINSGGRTYYADSVKGRFTISRDNAKNTVYLQMNSLKPEDTAVYYCAADRVYYGQRDYWGQGTQVTVSS	high polyreactivity
QVQLVESGGGLVQAGGSLRLSCAASGRIFVTYAMGWYRQAPGKERELVAAITSRGGRTYYADSVKGRFTISRDNAKKTVYLQMNSLKPEDTAVYYCAAYPGPGARYYYWGQGTQVTVSS	high polyreactivity
QVQLVESGGGLVQAGGSLRLSCAASGRIFVTYAMGWYRQAPGKERELVASISRSGGRTYYADSVKGRFTISRDNAKNTVYLQMNSLKPEDTAVYYCNADQEGYQQYFYLGSPYDYWGQGTQVTVSS	low polyreactivity
QVQLVESGGGLVQAGGSLRLSCAASGRIFVTYAMGWYRQAPGTERELVAAINSSVSSTRYADSVKGRFTMSRDNAKNTVYLQMNSLKPEDTAVYYCAAVYRYVRPIAKDEYWGQGTQVTVSS	low polyreactivity
QVQLVESGGGLVQAGGSLRLSCAASGRIFVTYGMGWYRQAPGKERELVAAINWRGGSTYYADSVKGRFTISRDNAKNTVYLQMNSLKPEDTAVYYCNARLYRNRLGYWGQGTQVTVSS	high polyreactivity
